# Experimental data: US20080064048A1, “Methods for Selecting Proteins that are Readily Presented as Antigens on Dendritic Cells” (Medical and Biological Laboratories, Co., Ltd., priority 2004, published 2008)
# T1: calreticulin (Mus musculus, UniProt P14211)
# T1 construct: Three types of ER resident proteins; endogenous in cells; host or cells: DC2.4 mouse dendritic cell line
# T1 sequence (P14211 18-416): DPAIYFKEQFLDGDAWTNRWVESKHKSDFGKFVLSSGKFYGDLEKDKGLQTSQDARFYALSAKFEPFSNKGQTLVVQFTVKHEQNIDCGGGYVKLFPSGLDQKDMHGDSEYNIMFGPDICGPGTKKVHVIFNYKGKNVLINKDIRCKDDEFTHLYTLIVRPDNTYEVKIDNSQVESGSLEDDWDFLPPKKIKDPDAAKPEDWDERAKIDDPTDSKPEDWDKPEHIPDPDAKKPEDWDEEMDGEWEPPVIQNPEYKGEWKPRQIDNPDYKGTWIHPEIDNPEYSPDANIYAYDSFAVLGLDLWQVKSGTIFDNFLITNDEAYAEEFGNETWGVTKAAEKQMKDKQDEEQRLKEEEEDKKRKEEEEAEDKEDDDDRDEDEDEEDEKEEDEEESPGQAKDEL
# T2: TAP2 (Mus musculus, UniProt P36371)
# T2 construct: endogenous in cells; host or cells: DC2.4 mouse dendritic cell line
# T2 sequence (P36371 1-702): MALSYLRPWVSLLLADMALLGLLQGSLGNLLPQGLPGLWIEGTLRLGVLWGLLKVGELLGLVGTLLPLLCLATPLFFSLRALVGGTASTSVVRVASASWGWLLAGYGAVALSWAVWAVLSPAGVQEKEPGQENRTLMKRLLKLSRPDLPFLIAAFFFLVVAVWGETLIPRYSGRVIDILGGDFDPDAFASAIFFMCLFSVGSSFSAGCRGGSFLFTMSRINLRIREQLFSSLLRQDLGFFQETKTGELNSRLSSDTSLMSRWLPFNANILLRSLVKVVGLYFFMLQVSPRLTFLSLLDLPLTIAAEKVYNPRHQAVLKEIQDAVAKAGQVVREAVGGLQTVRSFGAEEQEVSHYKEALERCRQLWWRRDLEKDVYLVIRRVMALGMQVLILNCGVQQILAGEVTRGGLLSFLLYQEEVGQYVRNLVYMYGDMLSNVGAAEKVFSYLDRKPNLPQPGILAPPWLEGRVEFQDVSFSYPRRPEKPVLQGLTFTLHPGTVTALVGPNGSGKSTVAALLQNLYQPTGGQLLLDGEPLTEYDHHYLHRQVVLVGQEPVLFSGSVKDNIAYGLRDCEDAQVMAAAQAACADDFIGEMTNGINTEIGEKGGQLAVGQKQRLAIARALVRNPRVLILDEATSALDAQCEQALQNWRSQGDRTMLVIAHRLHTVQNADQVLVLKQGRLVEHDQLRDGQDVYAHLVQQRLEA
# T2 sequence (P21958 1-724 partner): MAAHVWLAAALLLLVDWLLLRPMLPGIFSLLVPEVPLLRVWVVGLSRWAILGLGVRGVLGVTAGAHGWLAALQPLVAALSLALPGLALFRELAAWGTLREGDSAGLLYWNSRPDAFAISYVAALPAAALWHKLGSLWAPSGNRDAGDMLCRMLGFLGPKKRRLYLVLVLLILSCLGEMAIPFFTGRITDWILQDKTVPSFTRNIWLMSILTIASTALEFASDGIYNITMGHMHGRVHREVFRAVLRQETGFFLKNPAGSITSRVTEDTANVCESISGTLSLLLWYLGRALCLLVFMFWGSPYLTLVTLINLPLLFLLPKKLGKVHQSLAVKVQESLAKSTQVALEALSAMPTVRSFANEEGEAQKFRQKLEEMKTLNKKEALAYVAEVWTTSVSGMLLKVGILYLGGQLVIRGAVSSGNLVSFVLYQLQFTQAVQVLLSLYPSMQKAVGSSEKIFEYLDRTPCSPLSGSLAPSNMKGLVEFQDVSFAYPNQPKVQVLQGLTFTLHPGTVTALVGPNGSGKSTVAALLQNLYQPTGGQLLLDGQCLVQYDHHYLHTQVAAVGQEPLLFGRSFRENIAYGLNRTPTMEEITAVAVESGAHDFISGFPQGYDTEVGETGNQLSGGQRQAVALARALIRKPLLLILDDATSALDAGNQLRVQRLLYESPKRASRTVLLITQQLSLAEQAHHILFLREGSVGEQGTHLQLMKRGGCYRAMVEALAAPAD
# Assays:
# calreticulin = target: T1, calreticulin; test: Co-immunoprecipitation of bOVA with anti-calreticulin; format: binding; details: DC2.4 cells incubated with bOVA
# Description: (§1) 2×10^7 DC2.4 or BMDC cells were cultured for four hours in a medium containing 10 μM MG-132 in the presence of bOVA at 250 μg mL^−1. Cells were lysed in 20 mM HEPES pH7.6 containing 1% digitonin and protease inhibitors to collect biotin-labeled samples. The samples were cleared of impurities in advance using protein G sepharose (Amersham Pharmacia Biotech), and after incubation with antibodies for precipitation (anti-Sec61β, anti Sec61α, anti-VCP, anti-BiP, anti-PDI, anti-calreticulin, anti-TAP1, and anti-TAP2), the immunoprecipitates were collected using protein G. When chicken anti-CHIP antibody was used, immunoprecipitates were collected using a rabbit anti-IgY column (a person, MBL). The precipitated samples were analyzed by SDS-PAGE and Western blotting.
# TAP2 = target: T2, TAP2; test: Co-immunoprecipitation of bOVA with anti-TAP2; format: binding; details: DC2.4 cells incubated with bOVA
# Description: as §1
# DC2.4 cells = test: Polyubiquitination of antigen taken up by DC2.4 cells (Western blot, anti-polyubiquitin antibody); format: cell-based, mouse; details: CHIP-knocked-down DC2.4 (C4) vs parental DC2.4
# OT-I CD8+ T cells = test: Antigen presentation level: IL-2 production by OT-I CD8+ T cells (ELISA); format: cell-based, mouse; details: DC2.4, dose-response OVA vs bOVA
# Excerpt: Whether knock-down of cellular components involved in ERAD decreases the cross-presentation of exogenous OVA antigen was examined using a system for evaluating the level of antigen presentation, which uses naive CD8^+ T cells from OT-I mice and DC2.4 cells. The DC2.4 cells used as a model of dendritic cells are of the H-2 Kb mouse MHC class I haplotype. OT-I (H-2 Kb) mice are transgenic mice expressing a T cell receptor (TCRα and β) that recognizes an antigenic peptide (SIINFEKL) (SEQ ID NO: 15) derived from OVA presented on the H-2 Kb molecules. The CD8^+ cells of OT-I mice are activated when they recognize OVA peptides presented by BMDCs derived from H-2 Kb mice or by DC2.4 cells. When OVA or bOVA is incubated with and affixed onto DC2.4 cells and the cells are further incubated with naive CD8^+ T cells of OT-I mice, the amount of IL-2 produced by OT-I CD8^+ T cells serves as an index of T-cell stimulation as a result of OVA antigen presented by DC2.4 cells.
# Parental or knocked-down DC2.4 cells were pre-incubated in a culture medium supplemented with 50 μg mL^−1 polymyxin B for 30 minutes in the presence or absence of lactacystin or MG-132, and incubated with OVA (250 μg mL^−1) or SIINFEKL (SEQ ID NO: 15) peptides (10 ng mL^−1) for six hours. The cells were washed, fixed with 1% paraformaldehyde, and aliquoted into microtiter plates (5×10^4 per well). 5×10^4 CD8^+ T cells purified from splenocytes of OT-1 mice using magnetic beads were added to each well and after a 24-hour incubation, the IL-2 secretion was measured by ELISA (BD Biosciences) in triplicate. […]
molecule,measurement,setting,value
bOVA: biotin-labeled OVA antigen (protein) GSIGAASMEFCFDVFKELKVHHANENIFYCPIAIMSALAMVYLGAKDSTRTQINKVVRFDKLPGFGDSIEAQCGTSVNVHSSLRDILNQITKPNDVYSFSLASRLYAEERYPILPEYLQCVKELYRGGLEPINFQTAADQARELINSWVESQTNGIIRNVLQPSSVDSQTAMVLVNAIVFKGLWEKAFKDEDTQAMPFRVTEQESKPVQMMYQIGLFRVASMASEKMKILELPFASGTMSMLVLLPDEVSGLEQLESIINFEKLTEWTSSNVMEERKIKVYLPRMKMEEKYNLTSVLMAMGITDVFSSSANLSGISSAESLKISQAVHAAHAEINEAGREVVGSAEAGVDAASVSEEFRADHPFLFCIKHIATNAVLFFGRCVSP,interaction with calreticulin (co-immunoprecipitation),calreticulin,interacts
same,interaction with TAP2 (co-immunoprecipitation),TAP2,does not interact
same,polyubiquitination of bOVA in CHIP-knocked-down cells,DC2.4 cells,34%
same,antigenicity for stimulation of CD8+ OT-I T cells (IL-2 production),OT-I CD8+ T cells,equally antigenic
